Consider three molecules from paper PMC6255209 (Proceedings of the National Academy of Sciences of the …, 2018).

For test [1], the target named is YFP-β3 (UniProt P54287). Briefly: FRET or BRET.
Test [2] deals with YFP-β3 (UniProt P54287 1-484). Briefly: FRET or BRET.
YFP-β3 (UniProt P54287 1-484), sequence (P54287 whole entry): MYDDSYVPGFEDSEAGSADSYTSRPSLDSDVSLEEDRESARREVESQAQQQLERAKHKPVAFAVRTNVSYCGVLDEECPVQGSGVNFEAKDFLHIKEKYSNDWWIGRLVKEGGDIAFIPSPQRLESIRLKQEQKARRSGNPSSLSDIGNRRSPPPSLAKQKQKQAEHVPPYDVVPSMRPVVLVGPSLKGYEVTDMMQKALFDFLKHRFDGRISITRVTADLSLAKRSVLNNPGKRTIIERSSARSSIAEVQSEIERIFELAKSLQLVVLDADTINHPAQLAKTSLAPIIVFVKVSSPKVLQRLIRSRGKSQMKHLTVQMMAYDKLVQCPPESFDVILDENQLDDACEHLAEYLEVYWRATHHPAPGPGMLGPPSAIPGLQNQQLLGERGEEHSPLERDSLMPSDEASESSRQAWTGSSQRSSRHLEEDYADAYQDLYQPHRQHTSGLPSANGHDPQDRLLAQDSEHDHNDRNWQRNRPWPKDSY

YFP-β3 (UniProt P54287), sequence (P54287 whole entry): as above

Molecule “CFP-Rad (from UniProt P55042 1-308) (natural protein)” yielded an FRET efficiency in test [1] of 0.123.

In test [1], “CFP-Rad[R208A/L235A] (from UniProt P55042 1-308) (natural protein)” returned a fold decrease in affinity compared with CFP-Rad of 8 fold.

B1: CFP-Rem[R200A/L227A] (natural protein, UniProt O35929 1-297, looked up)
chain: MTLNTQQEAKTTLRRRASTPLPLSSRGHQPGRLCTAPSAPSQHPRLGQSVSLNPPVRKPSPAQDGWSSESSDSEGSWEALYRVVLLGDPGVGKTSLASLFAEKQDRDPHEQLGGVYERTLSVDGEDTTLVVMDTWEAEKLDESWCQESCLQAGSAYVIVYSIADRSSFESASELRIQLRRTHQANHVPIILVGNKADLAACREVSVEEGRACAVVFDCKFIETSATAQHNVTELFEGVVRQLRLRRQDNAAPETPSPRRRASLGQRARRFLARLTARSARRRALKARSKSCHNLAVL
As to B1, the “fold decrease in affinity compared with WT Rem” value in test [2] came to 5 fold.
